The target in this assay is T1, mouse gremlin-2 (GREM2; PRDC) (mouse, UniProt O88273 22-168).
T1 sequence (looked up): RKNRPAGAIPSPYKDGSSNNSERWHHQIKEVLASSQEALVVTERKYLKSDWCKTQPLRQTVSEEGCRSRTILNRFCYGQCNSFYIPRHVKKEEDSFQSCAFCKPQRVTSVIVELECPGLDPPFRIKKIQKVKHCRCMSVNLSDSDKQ
The assay can be described thus: co-IP.

B1: human anti-Müllerian hormone (AMH) (ligand, UniProt P03971 452-560, looked up)
chain: SAGATAADGPCALRELSVDLRAERSVLIPETYQANNCQGVCGWPQSDRNPRYGNHVVLLLKMQVRGAALARPPCCVPTAYAGKLLISLSEERISAHHVPNMVATECGCR
As to B1, the binding result is listed as “binds”.

The values are drawn from PMC4043579 (Reproduction (Cambridge, England), 2014).
